Measurements: article PMC9420396

What was measured:
[1] = target: T1, DDX21 helicase core WT (human, UniProt Q9NR30 188-563); experiment: MST
T1 sequence: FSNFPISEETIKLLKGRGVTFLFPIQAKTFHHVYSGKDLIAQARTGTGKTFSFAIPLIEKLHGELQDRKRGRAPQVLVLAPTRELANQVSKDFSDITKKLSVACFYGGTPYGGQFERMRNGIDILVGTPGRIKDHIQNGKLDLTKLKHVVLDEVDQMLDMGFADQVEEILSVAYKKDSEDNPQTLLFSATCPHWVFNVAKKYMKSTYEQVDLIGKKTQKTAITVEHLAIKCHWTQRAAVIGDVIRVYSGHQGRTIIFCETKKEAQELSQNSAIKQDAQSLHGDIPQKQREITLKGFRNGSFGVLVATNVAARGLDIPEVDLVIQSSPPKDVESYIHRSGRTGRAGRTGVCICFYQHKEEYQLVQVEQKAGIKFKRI

[2] = target: T1, DDX21 helicase core WT; experiment: SEC co-elution

B1: U15 RNA, 5'-FAM (ssRNA)
RNA: UUUUUUUUUUUUUUU
Question: Does B1 bind [1]?
Answer: binds

B2: U15 RNA (SEC) (ssRNA)
RNA: UUUUUUUUUUUUUUU
Question: Does B2 bind [2]?
Answer: binds
